Data reported in patent US20260151519A1 (AKTIS ONCOLOGY, published 2026).
Primed or numbered codes have the meaning given here. Where no end group is shown, it is not given here. [ ]: non-standard residue; d: D form. The star is where a group is joined. Biotin = O=C1N[C@H]2[C@H](CS[C@H]2CCCCC(=O)*)N1; Lys(Me3) = C[N+](C)(C)CCCC[C@H](N)C(=O)O; PEG4′ = not defined here

What was measured:
Human Nectin-4 = target: T1, Human Nectin-4 (human, UniProt Q96NY8 32-349, limits assumed); assay: SPR, Biacore T200, target immobilised, 1:1 model
T1 construct: Protein immobilised on the SPR chip; also called target protein
T1 sequence: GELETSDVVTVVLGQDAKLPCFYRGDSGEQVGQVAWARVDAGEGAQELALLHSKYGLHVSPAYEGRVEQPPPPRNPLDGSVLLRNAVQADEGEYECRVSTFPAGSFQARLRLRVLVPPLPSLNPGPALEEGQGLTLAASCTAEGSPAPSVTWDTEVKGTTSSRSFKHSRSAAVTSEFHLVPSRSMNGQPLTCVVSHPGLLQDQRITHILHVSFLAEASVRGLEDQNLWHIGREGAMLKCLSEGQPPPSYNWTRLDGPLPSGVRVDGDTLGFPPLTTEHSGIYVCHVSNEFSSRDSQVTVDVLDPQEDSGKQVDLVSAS
Method: Surface plasmon resonance (SPR) analyses were performed using Biacore T200 (GE Healthcare). Target protein (“ligand”) was immobilized to a CM5 Series S sensor chip (Cytiva) using amine-coupling chemistry. Running buffer was 0.05% surfactant P20 in HEPES buffered saline (HBS-P), pH 7.4 (Cytiva). Immobilization was performed at 25° C. Carboxyl groups in each flow cell were activated using a 1:1 mixture of 0.4 M 1-ethyl-3-(3-dimethylaminopropyl)-carbodiimide in water (EDC) and 0.1 M N-hydroxysuccinimide in water (NHS) for 7 minutes. The ligand was prepared in 10 mM sodium acetate pH 5 (Cytiva). Pulsatile injections were made to target a specific immobilization level. Any remaining amine-reactive esters on the chip surface were blocked with a 7-minute injection of 1 M ethanolamine, pH 8.5. Three 10-second pulses of 50 mM sodium hydroxide were then made to remove any unbound ligand. Reference cells were modified using amine coupling chemistry, omitting ligand injection.
Increase in signal (RU) is proportional to an increase in binding events between the analyte and ligand surface. The injection was then stopped, and dissociation was measured. […] Measured association (kₐ, 1/Ms⁻¹) and dissociation (kd, s⁻¹) were fit to a 1:1 binding model to calculate a dissociation equilibrium constant, KD(M) for each analyte.

Nectin-1 = target: T2, Nectin-1 (human, UniProt Q15223 31-517); assay: cell microarray on HEK293 cells, pooled compounds
T2 construct: whole, on cells; Plasma membrane, non-tethered secreted and tethered secreted forms in the library
T2 sequence (looked up): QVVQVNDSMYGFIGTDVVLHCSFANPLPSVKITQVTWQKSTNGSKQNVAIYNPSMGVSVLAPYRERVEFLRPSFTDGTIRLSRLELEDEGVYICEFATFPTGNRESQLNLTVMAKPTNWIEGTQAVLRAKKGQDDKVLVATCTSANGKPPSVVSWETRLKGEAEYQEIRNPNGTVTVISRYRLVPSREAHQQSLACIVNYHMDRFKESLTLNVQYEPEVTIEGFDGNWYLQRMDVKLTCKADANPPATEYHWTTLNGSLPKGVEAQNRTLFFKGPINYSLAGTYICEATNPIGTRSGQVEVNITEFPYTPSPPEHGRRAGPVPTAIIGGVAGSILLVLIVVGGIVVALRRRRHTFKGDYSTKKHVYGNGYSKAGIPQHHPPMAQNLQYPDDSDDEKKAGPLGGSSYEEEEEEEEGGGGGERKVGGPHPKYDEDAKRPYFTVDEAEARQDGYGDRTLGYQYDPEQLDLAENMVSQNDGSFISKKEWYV
Method: (§1) Initially, two pools of compounds were tested. […] To perform this assay, HEK293 cells were plated on a dish and localized spots of cells were transiently over-expressed with a single cDNA encoding for GFP and one of the 6,416 targets. Included in this library were multiple clones for the Nectin family members, including plasma membrane, non-tethered secreted, and tethered secreted forms of Nectin-1, 2, 3, and 4. Secreted protein targets were tethered to the plasma membrane to aid in detection. The molecule pools were incubated on the fixed, over-expressing cell microarrays (n=2 per protein), and binding was visualized using Alexa Fluor 647 streptavidin fluorescence.

Nectin-2 = target: T3, Nectin-2 (human, UniProt Q92692 32-538); assay: cell microarray on HEK293 cells, pooled compounds
T3 construct: whole, on cells; Plasma membrane, non-tethered secreted and tethered secreted forms in the library
T3 sequence (looked up): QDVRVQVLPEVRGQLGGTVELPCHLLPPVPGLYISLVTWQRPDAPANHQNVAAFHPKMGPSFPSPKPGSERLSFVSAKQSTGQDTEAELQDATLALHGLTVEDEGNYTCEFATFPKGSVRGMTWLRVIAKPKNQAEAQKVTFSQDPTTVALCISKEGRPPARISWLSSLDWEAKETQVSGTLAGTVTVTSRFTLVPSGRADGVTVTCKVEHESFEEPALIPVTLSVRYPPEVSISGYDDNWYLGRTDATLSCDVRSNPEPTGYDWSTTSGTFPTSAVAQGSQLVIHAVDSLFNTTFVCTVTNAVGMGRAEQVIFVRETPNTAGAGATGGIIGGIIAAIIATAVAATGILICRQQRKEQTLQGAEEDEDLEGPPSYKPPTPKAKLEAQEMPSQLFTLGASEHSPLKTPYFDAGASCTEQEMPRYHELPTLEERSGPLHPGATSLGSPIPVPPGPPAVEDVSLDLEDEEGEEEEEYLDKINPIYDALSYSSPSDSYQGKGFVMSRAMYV
Method: as §1

EGF = target: T4, EGF (human, UniProt P01133 23-1207); assay: cell microarray on HEK293 cells
T4 construct: whole, on cells
T4 sequence (P01133 23-1207): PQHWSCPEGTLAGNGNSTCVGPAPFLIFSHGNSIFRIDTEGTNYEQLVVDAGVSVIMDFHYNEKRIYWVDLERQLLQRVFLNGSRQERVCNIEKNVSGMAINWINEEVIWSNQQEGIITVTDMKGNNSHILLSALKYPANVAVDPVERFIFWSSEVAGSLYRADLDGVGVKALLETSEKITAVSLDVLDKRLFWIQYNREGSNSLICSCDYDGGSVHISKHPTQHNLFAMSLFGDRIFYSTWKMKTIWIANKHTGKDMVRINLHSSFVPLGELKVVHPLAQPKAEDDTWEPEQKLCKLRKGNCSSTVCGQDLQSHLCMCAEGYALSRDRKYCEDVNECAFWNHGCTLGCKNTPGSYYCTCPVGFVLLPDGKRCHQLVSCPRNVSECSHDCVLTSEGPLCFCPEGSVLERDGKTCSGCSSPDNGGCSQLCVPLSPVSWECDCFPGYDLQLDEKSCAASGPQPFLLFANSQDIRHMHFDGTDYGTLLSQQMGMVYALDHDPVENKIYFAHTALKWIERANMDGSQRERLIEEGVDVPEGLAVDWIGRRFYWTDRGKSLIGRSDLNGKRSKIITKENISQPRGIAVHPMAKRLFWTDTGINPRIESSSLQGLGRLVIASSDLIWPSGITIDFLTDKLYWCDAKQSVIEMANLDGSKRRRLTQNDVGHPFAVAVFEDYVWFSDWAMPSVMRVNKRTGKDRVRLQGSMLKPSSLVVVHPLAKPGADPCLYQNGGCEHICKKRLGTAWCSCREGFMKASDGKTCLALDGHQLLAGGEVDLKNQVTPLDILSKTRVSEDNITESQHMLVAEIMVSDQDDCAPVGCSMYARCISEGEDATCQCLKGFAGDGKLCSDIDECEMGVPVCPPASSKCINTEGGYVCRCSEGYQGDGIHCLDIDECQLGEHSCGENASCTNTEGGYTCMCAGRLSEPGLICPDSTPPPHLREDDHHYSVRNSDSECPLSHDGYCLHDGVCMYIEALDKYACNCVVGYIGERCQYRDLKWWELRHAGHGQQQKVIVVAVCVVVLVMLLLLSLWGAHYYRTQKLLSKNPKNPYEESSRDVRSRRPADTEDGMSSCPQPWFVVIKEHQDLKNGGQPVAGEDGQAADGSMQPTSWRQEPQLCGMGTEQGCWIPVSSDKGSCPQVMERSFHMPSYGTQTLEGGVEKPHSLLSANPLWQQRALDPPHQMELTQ
Method: as §1

IGFBP4 = target: T5, IGFBP4 (human, UniProt P22692 22-258); assay: cell microarray on HEK293 cells
T5 construct: whole, on cells; Secreted targets were tethered to the plasma membrane
T5 sequence (looked up): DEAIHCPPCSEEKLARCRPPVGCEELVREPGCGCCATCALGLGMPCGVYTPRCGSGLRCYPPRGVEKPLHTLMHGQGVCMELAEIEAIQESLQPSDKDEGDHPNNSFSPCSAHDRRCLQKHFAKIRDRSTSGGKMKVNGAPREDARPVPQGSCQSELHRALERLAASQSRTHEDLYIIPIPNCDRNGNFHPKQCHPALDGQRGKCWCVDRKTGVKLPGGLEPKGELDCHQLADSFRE
Method: as §1

| Binder | Kd (Human Nectin-4) | binding result (Nectin-1) | binding result (Nectin-2) | binding result (EGF) | binding result (IGFBP4) |
| --- | --- | --- | --- | --- | --- |
| {Biotin-PEG4′}-CDYDEQFFTALKRLRGADICEYIQASFQYLPGECIEEILDNLGCS (designed binder, cysteine pairing not given here) [C208] | 302 pM | no binding (tested: 2 µg/mL) | no binding (tested: 2 µg/mL) | no binding (tested: 2 µg/mL) | no binding (tested: 2 µg/mL) |
| {Biotin-PEG4′}-CEYDEQFFTALKRLRGDDICDYIQASFQYLPGLCIEEILDNLGCS (designed binder, cysteine pairing not given here) [C197] | 212 pM | no binding (tested: 2 µg/mL) | no binding (tested: 2 µg/mL) | no binding (tested: 2 µg/mL) | no binding (tested: 2 µg/mL) |
| {Biotin-PEG4′}-CDYDEQFFTALKRLRGGDICEYIQASFQYLPGLCIEEILDNLGCS (designed binder, cysteine pairing not given here) [C190] | 318 pM | no binding (tested: 2 µg/mL) | no binding (tested: 2 µg/mL) | no binding (tested: 2 µg/mL) | no binding (tested: 2 µg/mL) |
| {Biotin-PEG4′}-CDYDEQFFTALARLRGADICEYIQASFQYLPGECIEEILDNLGCS (designed binder, cysteine pairing not given here) [C247] | 283 pM | no binding (tested: 2 µg/mL) | no binding (tested: 2 µg/mL) | no binding (tested: 2 µg/mL) | no binding (tested: 2 µg/mL) |
| {Biotin-PEG4′}-CEYDEEFFTALARLRGGDICQYIQA[Lys(Me3)]FQYLPALCIEEILDNLGCS (designed binder, cysteine pairing not given here) [C253] | 255 pM | no binding (tested: 2 µg/mL) | no binding (tested: 2 µg/mL) | no binding (tested: 2 µg/mL) | no binding (tested: 2 µg/mL) |
